Measured values published in PMC5762878.

How the values were obtained:
[1] = target: Recombinant flavin reductase (rFlaR), HAT-tagged (Streptococcus pneumoniae (strain WU2)); assay: SDS-PAGE with or without β-mercaptoethanol + MALDI-TOF of the bands; HAT-tagged rFlaR purified on Ni-NTA under denaturing conditions; reducing gel: major band 22 kDa, minor 45 kDa; non-reducing gel: 45 kDa major, 22 kDa minor; both bands identified by in-gel digestion and MALDI-TOF and detected by rabbit anti-rFlaR antiserum
[2] = target: Flavin reductase (FlaR), endogenous in S. pneumoniae WU2 (Streptococcus pneumoniae (endogenous in strain WU2)); assay: SDS-PAGE and immunoblot of cell fractions; cytoplasmic and cell-wall fractions of WU2 WT, immunoblotted with rabbit anti-rFlaR antiserum; bands at ~17 kDa and 34 kDa in the cytoplasm, 34 kDa band also in the cell-wall fraction

Row | Substance | stoichiometry N [1] | stoichiometry N [2]
1 | Recombinant flavin reductase (rFlaR), HAT-tagged (from UniProt A0ACD7PR00 1-174) (enzyme) | 2 | 
2 | Flavin reductase (FlaR), endogenous in S. pneumoniae WU2 (from UniProt A0ACD7PR00 1-174) (enzyme) |  | 2
